# Source: patent US20190276511A1 (BIONTECH RNA PHARMACEUTICALS, published 2019)
# T1: CD27-Fc (human, UniProt P26842 20-191)
# T1 construct: extracellular domain; hinge included for covalent assembly; also called CD27 receptor-Fc fusion protein; not shown: human Fc gamma 1 region including the hinge region
# T1 sequence (looked up): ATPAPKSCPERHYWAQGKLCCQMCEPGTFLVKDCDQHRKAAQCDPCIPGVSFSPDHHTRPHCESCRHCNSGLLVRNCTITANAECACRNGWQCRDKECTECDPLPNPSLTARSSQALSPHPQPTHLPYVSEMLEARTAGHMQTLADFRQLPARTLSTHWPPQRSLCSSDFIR
# T2: OX40-Fc (human, UniProt P43489 29-214)
# T2 construct: extracellular domain; hinge included for covalent assembly; also called OX40 receptor-Fc fusion protein; not shown: human Fc gamma 1 region including the hinge region
# T2 sequence (looked up): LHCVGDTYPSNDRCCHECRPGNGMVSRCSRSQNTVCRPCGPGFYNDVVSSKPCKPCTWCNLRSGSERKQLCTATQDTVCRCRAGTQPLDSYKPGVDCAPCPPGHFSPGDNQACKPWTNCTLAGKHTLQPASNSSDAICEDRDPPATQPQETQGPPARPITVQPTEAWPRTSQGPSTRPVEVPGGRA
# T3: OX40 receptor on cells (human, UniProt P43489 29-277)
# T3 sequence (looked up): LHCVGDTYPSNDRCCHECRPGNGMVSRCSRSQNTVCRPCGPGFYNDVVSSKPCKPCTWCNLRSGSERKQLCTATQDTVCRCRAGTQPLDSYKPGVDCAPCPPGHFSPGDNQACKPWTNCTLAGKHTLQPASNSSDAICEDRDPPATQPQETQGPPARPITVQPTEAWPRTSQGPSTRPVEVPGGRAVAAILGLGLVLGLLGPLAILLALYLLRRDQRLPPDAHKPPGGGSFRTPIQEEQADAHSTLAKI
# Key:
# CD27-Fc [1] = molecular target: T1, CD27-Fc; test: ELISA, coated receptor-Fc
# Description: (§1) Receptor binding of the Duokines was analyzed by ELISA using fusion proteins of the extracellular region of CD40, CD27, 4-1BB and OX40, respectively, with the human Fcγ1 region including the hinge region for covalent assembly (CD40-Fc, CD27-Fc, 4-1BB-Fc, OX40-Fc). Receptor-Fc fusion proteins (200 ng/well) were coated overnight at 4° C. and remaining binding sites were blocked with PBS, 2% skimmed milk powder (2% MPBS).
# 4-1BB-Fc = molecular target: T4, 4-1BB-Fc (human, UniProt Q07011 24-186); test: ELISA, coated receptor-Fc
# T4 construct: extracellular domain; hinge included for covalent assembly; also called 4-1BB receptor-Fc fusion protein; not shown: human Fc gamma 1 region including the hinge region
# Description: as §1
# 4-1BB receptor on cells = 4-1BB receptor on cells (human, UniProt Q07011 24-255); test: cell-based or functional assay
# 4-1BB receptor on cells, sequence (Q07011 24-255): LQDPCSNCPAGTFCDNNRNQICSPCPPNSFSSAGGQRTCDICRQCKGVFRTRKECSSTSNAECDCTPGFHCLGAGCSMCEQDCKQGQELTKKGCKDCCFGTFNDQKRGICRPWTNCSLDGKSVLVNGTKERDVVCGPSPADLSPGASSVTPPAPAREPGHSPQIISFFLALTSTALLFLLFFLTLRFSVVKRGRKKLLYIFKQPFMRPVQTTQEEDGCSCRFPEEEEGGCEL
# CD40-Fc [2] = molecular target: T5, CD40-Fc (human, UniProt P25942 21-193); test: ELISA, coated receptor-Fc
# T5 construct: extracellular domain; hinge included for covalent assembly; also called CD40 receptor-Fc fusion protein; not shown: human Fc gamma 1 region including the hinge region
# T5 sequence (P25942 21-193 limits assumed): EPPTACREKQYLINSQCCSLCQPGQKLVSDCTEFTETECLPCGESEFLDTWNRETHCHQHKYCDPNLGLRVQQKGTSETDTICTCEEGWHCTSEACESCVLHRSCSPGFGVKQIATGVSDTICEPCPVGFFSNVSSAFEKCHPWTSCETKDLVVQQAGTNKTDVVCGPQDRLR
# OX40-Fc [3] = molecular target: T2, OX40-Fc; test: ELISA, coated receptor-Fc
# OX40-Fc [4] = molecular target: T2, OX40-Fc; test: ELISA, coated receptor-Fc; remark: listed apart in the source
# Description: as §1
# OX40 receptor on cells = molecular target: T3, OX40 receptor on cells; test: cell-based or functional assay
# CD27-Fc [5] = molecular target: T1, CD27-Fc; test: ELISA, coated receptor-Fc; remark: listed apart in the source
# CD40-Fc [6] = molecular target: T5, CD40-Fc; test: ELISA, coated receptor-Fc; remark: listed apart in the source
# Description: as §1
# CD40 receptor on cells = CD40 receptor on cells (human, UniProt P25942 21-277); test: cell-based or functional assay
# CD40 receptor on cells, sequence (P25942 21-277): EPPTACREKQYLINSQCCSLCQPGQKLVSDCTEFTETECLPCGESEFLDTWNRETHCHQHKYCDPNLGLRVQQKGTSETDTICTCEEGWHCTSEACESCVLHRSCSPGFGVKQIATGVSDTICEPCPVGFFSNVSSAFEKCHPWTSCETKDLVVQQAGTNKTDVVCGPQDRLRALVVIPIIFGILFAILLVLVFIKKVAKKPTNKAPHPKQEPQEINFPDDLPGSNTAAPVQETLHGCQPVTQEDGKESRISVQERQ
EC50 (CD27-Fc [1]),EC50 (4-1BB-Fc),"Receptor activation (EC50, nM) (4-1BB receptor on cells)",binding result (CD40-Fc [2]),binding result (OX40-Fc [3]),EC50 (OX40-Fc [4]),"Receptor activation (EC50, nM) (OX40 receptor on cells)",binding result (CD27-Fc [5]),EC50 (CD40-Fc [6]),"Receptor activation (EC50, nM) (CD40 receptor on cells)",Binder
6.34 nM,1.41 nM,1.44 nM,no binding (tested: 100 nM (FIG. 4)),no binding (tested: 100 nM (FIG. 4)),–,–,–,–,–,"CD27L-4-1BBL (ligand, Duokine from HEK293, FLAG-purified; VH leader left out; homotrimer by SEC; also called Duokine CD27L-4-1BBL; not shown: N-terminal FLAG tag) SLGWDVAELQLNHTGPQQDPRLYWQGGPALGRSFLHGPELDKGQLRIHRDGIYMVHIQVTLAICSSTTASRHHPTTLAVGICSPASRSISLLRLSFHQGCTIASQRLTPLARGDTLCTNLTGTLLPSRNTDETFFGVQWVRPGGGGSGGGGSGGGGSGGGGSREGPELSPDDPAGLLDLRQGMFAQLVAQNVLLIDGPLSWYSDPGLAGVSLTGGLSYKEDTKELVVAKAGVYYVFFQLELRRVVAGEGSGSVSLALHLQPLRSAAGAAALALTVDLPPASSEARNSAFGFQGRLLHLSAGQRLGVHLHTEARARHAWQLTQGATVLGLFRVTPEIPAGLPSPRSE"
–,1.26 nM,2.75 nM,no binding (tested: 100 nM (FIG. 4)),–,7.17 nM,0.85 nM,no binding (tested: 100 nM (FIG. 4)),–,–,"OX40L-4-1BBL (ligand, Duokine from HEK293, FLAG-purified; VH leader left out; homotrimer by SEC; also called Duokine OX40L-4-1BBL; not shown: N-terminal FLAG tag) QVSHRYPRIQSIKVQFTEYKKEKGFILTSQKEDEIMKVQNNSVIINCDGFYLISLKGYFSQEVNISLHYQKDEEPLFQLKKVRSVNSLMVASLTYKDKVYLNVTTDNTSLDDFHVNGGELILIHQNPGEFCVLGGGGSGGGGSGGGGSGGGGSREGPELSPDDPAGLLDLRQGMFAQLVAQNVLLIDGPLSWYSDPGLAGVSLTGGLSYKEDTKELVVAKAGVYYVFFQLELRRVVAGEGSGSVSLALHLQPLRSAAGAAALALTVDLPPASSEARNSAFGFQGRLLHLSAGQRLGVHLHTEARARHAWQLTQGATVLGLFRVTPEIPAGLPSPRSE"
–,2.11 nM,0.45 nM,–,no binding (tested: 100 nM (FIG. 4)),–,–,no binding (tested: 100 nM (FIG. 4)),10.1 nM,3.01 nM,"CD40L-4-1BBL (ligand, Duokine from HEK293, FLAG-purified; VH leader left out; homotrimer by SEC; also called Duokine CD40L-4-1BBL; not shown: N-terminal FLAG tag) GDQNPQIAAHVISEASSKTTSVLQWAEKGYYTMSNNLVTLENGKQLTVKRQGLYYIYAQVTFCSNREASSQAPFIASLCLKSPGRFERILLRAANTHSSAKPCGQQSIHLGGVFELQPGASVFVNVTDPSQVSHGTGFTSFGLLKLGGGGSGGGGSGGGGSGGGGSREGPELSPDDPAGLLDLRQGMFAQLVAQNVLLIDGPLSWYSDPGLAGVSLTGGLSYKEDTKELVVAKAGVYYVFFQLELRRVVAGEGSGSVSLALHLQPLRSAAGAAALALTVDLPPASSEARNSAFGFQGRLLHLSAGQRLGVHLHTEARARHAWQLTQGATVLGLFRVTPEIPAGLPSPRSE"
